Results: IntAct's records for PubMed 17719540

B1: Type 3 secretion system translocon protein SctE (Shigella flexneri), P18011 (parent)
chain: MHNVSTTTTGFPLAKILTSTELGDNTIQAANDAANKLFSLTIADLTANQNINTTNAHSTSNILIPELKAPKSLNASSQLTLLIGNLIQILGEKSLTALTNKITAWKSQQQARQQKNLEFSDKINTLLSETEGLTRDYEKQINKLKNADSKIKDLENKINQIQTRLSELDPESPEKKKLSREEIQLTIKKDAAVKDRTLIEQKTLSIHSKLTDKSMQLEKEIDSFSAFSNTASAEQLSTQQKSLTGLASVTQLMATFIQLVGKNNEESLKNDLALFQSLQESRKTEMERKSDEYAAEVRKAEELNRVMGCVGKILGALLTIVSVVAAAFSGGASLALAAVGLALMVTDAIVQAATGNSFMEQALNPIMKAVIEPLIKLLSDAFTKMLEGLGVDSKKAKMIGSILGAIAGALVLVAAVVLVATVGKQAAAKLAENIGKIIGKTLTDLIPKFLKNFSSQLDDLITNAVARLNKFLGAAGDEVISKQIISTHLNQAVLLGESVNSATQAGGSVASAVFQNSASTNLADLTLSKYQVEQLSKYISEAIEKFGQLQEVIADLLASMSNSQANRTDVAKAILQQTTA

Variants of: B1
Conditions: with ipgc_shifl ipgC

Row | Variant | effect of a mutation on the interaction
1 | MHNVSTTTTGFPLAKILTSTELGDNTIQAANDAANKLFSLTIADLTANQNINTTNAHSTSNILIPEAKAPKSLNASSQLTLLIGNLIQILGEKSLTALTNKITAWKSQQQARQQKNLEFSDKINTLLSETEGLTRDYEKQINKLKNADSKIKDLENKINQIQTRLSELDPESPEKKKLSREEIQLTIKKDAAVKDRTLIEQKTLSIHSKLTDKSMQLEKEIDSFSAFSNTASAEQLSTQQKSLTGLASVTQLMATFIQLVGKNNEESLKNDLALFQSLQESRKTEMERKSDEYAAEVRKAEELNRVMGCVGKILGALLTIVSVVAAAFSGGASLALAAVGLALMVTDAIVQAATGNSFMEQALNPIMKAVIEPLIKLLSDAFTKMLEGLGVDSKKAKMIGSILGAIAGALVLVAAVVLVATVGKQAAAKLAENIGKIIGKTLTDLIPKFLKNFSSQLDDLITNAVARLNKFLGAAGDEVISKQIISTHLNQAVLLGESVNSATQAGGSVASAVFQNSASTNLADLTLSKYQVEQLSKYISEAIEKFGQLQEVIADLLASMSNSQANRTDVAKAILQQTTA [L67A] | decreasing interaction

Variants of: B1
Conditions: with md2l2_human MAD2L2, Q9UI95
md2l2_human MAD2L2, Q9UI95, sequence (Q9UI95 whole entry): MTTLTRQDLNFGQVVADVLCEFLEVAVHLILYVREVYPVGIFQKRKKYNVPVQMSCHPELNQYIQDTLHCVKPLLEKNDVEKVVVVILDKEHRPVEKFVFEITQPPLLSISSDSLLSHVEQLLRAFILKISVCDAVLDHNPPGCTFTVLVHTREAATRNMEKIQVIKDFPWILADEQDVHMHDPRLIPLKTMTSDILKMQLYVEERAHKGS

Row | Variant | effect of a mutation on the interaction
2 | MHNVSTTTTGFPLAKILTSTELGDNTIQAANDAANKLFSLTIADLTANQNINTTNAHSTSAILIPELKAPKSLNASSQLTLLIGNLIQILGEKSLTALTNKITAWKSQQQARQQKNLEFSDKINTLLSETEGLTRDYEKQINKLKNADSKIKDLENKINQIQTRLSELDPESPEKKKLSREEIQLTIKKDAAVKDRTLIEQKTLSIHSKLTDKSMQLEKEIDSFSAFSNTASAEQLSTQQKSLTGLASVTQLMATFIQLVGKNNEESLKNDLALFQSLQESRKTEMERKSDEYAAEVRKAEELNRVMGCVGKILGALLTIVSVVAAAFSGGASLALAAVGLALMVTDAIVQAATGNSFMEQALNPIMKAVIEPLIKLLSDAFTKMLEGLGVDSKKAKMIGSILGAIAGALVLVAAVVLVATVGKQAAAKLAENIGKIIGKTLTDLIPKFLKNFSSQLDDLITNAVARLNKFLGAAGDEVISKQIISTHLNQAVLLGESVNSATQAGGSVASAVFQNSASTNLADLTLSKYQVEQLSKYISEAIEKFGQLQEVIADLLASMSNSQANRTDVAKAILQQTTA [N61A] | decreasing interaction
